Assay [1] has as its target T1, CD3 on Jurkat cells (UniProt P04234 22-171; P07766 23-207).
T1 construct: whole, on cells
In words: flow cytometry on Jurkat cells. As for the experimental part: Jurkat cells were collected, centrifuged at 300 g for 5 min, and suspended in PBS. After another centrifugation, the cells were suspended in 2% FBS-PBS at the cell density of 3×10⁶/ml, and […] were plated onto a U-bottom plate. The plate was added with 50 μl serially diluted anti-CD3 antibodies of the disclosure in 2% FBS-PBS (4-fold dilution, starting at 20 μg/ml), and incubated at room temperature for 1 h. The plate was washed with 2% FBS-PBS for three times, added with 50 μl PE-labeled goat-anti-human IgG (H+L) (1: 500), and incubated at room temperature for 45 min. The plate was washed with 2% FBS-PBS again for three times, and added with 150 μl 2% FBS-PBS to suspend the cells. The plate was measured for cell fluorescence using a cytometry, and the data was processed with FlowJo and analyzed with GraphPad.
For orientation: A flow cytometer gives signals particle by particle.

Assay [2] deals with T2, CD3D&E protein (Cat #: CT038-H2508H, Sino Biological) (human, UniProt P04234 22-105; P07766 23-126).
T2 construct: Bought complex of the delta and epsilon chains; also called CD3D&E complex; human CD3D&E complex
T2 sequence (P04234 22-105, form in doubt, chain 1 of 2): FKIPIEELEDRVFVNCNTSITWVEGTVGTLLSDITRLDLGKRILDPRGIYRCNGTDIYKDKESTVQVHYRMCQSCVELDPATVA
T2 sequence (P07766 23-126, form in doubt, chain 2 of 2): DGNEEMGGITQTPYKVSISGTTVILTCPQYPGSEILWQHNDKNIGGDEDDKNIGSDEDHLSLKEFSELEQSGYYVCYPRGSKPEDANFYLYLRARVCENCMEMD
The experiment in a line: ELISA, coated CD3D&E. A general note: ELISA stands for enzyme-linked immunosorbent assay.

Assay [3] has as its target T2, CD3D&E protein (Cat #: CT038-H2508H, …). The experiment in a line: SPR (BIAcore 8K), antibody captured by anti-human Fc, CD3D&E as analyte. As for the experimental part: Briefly, the mouse anti-human Fc antibodies were coupled to a CM5 biosensor chip. The anti-CD3 antibodies of the disclosure in the HBS-EP buffer (Cat #: BR-1006-69, GE Life Sciences) at the concentration of 1 μg/ml was flowed through the chip, where about 100 RU of the antibodies were captured by the mouse anti-human Fc antibodies. Serially diluted CD3D&E molecules (Cat #: CT038-H2508H, Sino Biological) in the HBS-EP buffer (Cat #: BR-1006-69, GE Life Sciences) (2-fold dilution starting at 20 μg/ml) were respectively flowed through the chip. Chip regeneration was performed with 3 M MgCl₂.
Background: Surface plasmon resonance follows binding to a sensor surface in real time, without labels.

Changes are numbered by the printed parent chain. In names and notes the source's numbering stands.

From patent US20230348630A1 (BEIJING MABWORKS BIOTECH, published 2023) come the findings set out here.

T1 sequence (P04234 22-171, chain 1 of 2): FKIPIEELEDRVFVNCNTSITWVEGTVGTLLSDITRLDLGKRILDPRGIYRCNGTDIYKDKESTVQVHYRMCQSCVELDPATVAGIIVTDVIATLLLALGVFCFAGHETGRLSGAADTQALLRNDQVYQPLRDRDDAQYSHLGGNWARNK
T1 sequence (P07766 23-207, chain 2 of 2): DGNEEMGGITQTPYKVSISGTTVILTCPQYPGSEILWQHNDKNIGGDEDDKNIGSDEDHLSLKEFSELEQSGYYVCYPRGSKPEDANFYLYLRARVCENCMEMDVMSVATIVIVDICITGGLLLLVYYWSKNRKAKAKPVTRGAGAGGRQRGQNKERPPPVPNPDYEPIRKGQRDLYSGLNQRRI

B1: anti-CD3D&E antibody D8E5, full-length human IgG1 (L234A/L235A/N297A)/kappa (antibody, V domains shown)
VH: EVQLVESGGGLVQPGRSLRLSCAASGFTFDSYSMHWVRQAPGKGLEWVSGISWNSGSLGYADSVKGRFTISRDNAKKSLYLQMNSLRAEDTALYYCAKDRSGYGHYYYGMDVWGQGTTVTVAS
VL: EIVMTQSPATLSVSPGERATLSCRASRSVSLNVAWYQQKPGQAPRLLIYGASTKYTGIPARFSGSGSGTEFTLTISSLQSEDFAVYYCQQYINWPLTFGGGTKVEIKR
As to B1, the EC50 was 0.0411 µg/mL in assay [1] and 0.00816 µg/mL in assay [2]. This molecule also came in with a Kd in assay [3] of 30 nM.

B2: anti-CD3D&E antibody 7-1A12, full-length human IgG1 (L234A/L235A/N297A)/kappa (antibody, V domains shown)
VH: B1 VH with D30S, S31D, S33T, S55T, S57T, L58I, R100N, Y108F
VL: B1 VL with R27Q, L31R, K54R, Y55Q, Q90S, T97Q
With B2, the values for the EC50 in assay [1] and in assay [2] were 0.119 µg/mL and 0.00402 µg/mL, respectively. Also, the Kd in assay [3] was 6.54 nM.

The EC50 is the concentration giving half of the maximal effect. A high value points to a need for much substance. As a reminder, the Kd is the constant that tells how readily two partners part at equilibrium.
